# ± gives the standard deviation of the averaged measurements.
# Columns and labels:
# Saccharomyces cerevisiae [1] = assay: protein stability index of tFT-peptide fusion (C-terminal peptide) (PSI (0-1 scale)); higher = more stable (slower turnover); conditions: genetic background: wild type; temperature: 30 C
# Saccharomyces cerevisiae [2] = assay: as above
# Description: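 MPS profiling in S. cerevisiae of the tFT-X12 degron library: putative degron peptides plus stable controls, 12 aa, fused to the C-terminus of a sfGFP-mCherry timer. Cells are FACS-sorted into 8 mCherry/sfGFP bins and deep-sequenced. PSI runs from 0 (unstable) to 1 (stable). Backgrounds are wild type, das1Δ and doa10Δ at 30 °C, and wild type, das1Δ, cdc34-1 and cdc53-1 at 37 °C; 2-3 technical replicates each.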
# [3] = genetic background: cdc34-1, temperature: 37 C
# [4] = genetic background: cdc53-1, temperature: 37 C
# [5] = genetic background: das1 deletion, temperature: 30 C
# [6] = genetic background: das1 deletion, temperature: 37 C
# [7] = genetic background: doa10 deletion, temperature: 30 C
# [8] = genetic background: wild type, temperature: 30 C
# [9] = genetic background: wild type, temperature: 37 C
# 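Also: PSI is a weighted mean of sequencing reads over stability bins, variants kept only with over 10 reads, mCherry proximal and sfGFP distal, peptide attached via GGGS linker.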
Sequence,protein stability index (Saccharomyces cerevisiae [1]),protein stability index (Saccharomyces cerevisiae [2]; [3]),protein stability index (Saccharomyces cerevisiae [2]; [4]),protein stability index (Saccharomyces cerevisiae [2]; [5]),protein stability index (Saccharomyces cerevisiae [2]; [6]),protein stability index (Saccharomyces cerevisiae [2]; [7]),protein stability index (Saccharomyces cerevisiae [2]; [8]),protein stability index (Saccharomyces cerevisiae [2]; [9])
WGRGYRWRIWDV,0.546 ± 0.093,0.708 ± 0.068,0.772 ± 0.018,0.657 ± 0.015,0.7901 ± 0.0042,0.396 ± 0.01,0.433 ± 0.0092,0.656 ± 0.034
SGRATSSRTSEP,0.78 ± 0.024,0.67 ± 0.035,0.72963 ± 0.00027,0.661 ± 0.01,0.713 ± 0.0042,0.662 ± 0.03,0.6625 ± 0.0048,0.7036 ± 0.0011
RYRVRIVVFGLV,0.14 ± 0.018,0.407 ± 0.018,0.485 ± 0.068,0.365 ± 0.015,0.59 ± 0.032,0.075 ± 0.02,0.088 ± 0.046,0.0807 ± 0.0076
CLRVSFFFWLFA,0.351 ± 0.016,0.465 ± 0.017,0.562 ± 0.0068,0.392 ± 0.041,0.553 ± 0.0073,0.224 ± 0.0084,0.263 ± 0.017,0.424 ± 0.0084
KIRGYLMPLTLL,0.503 ± 0.037,0.56 ± 0.037,0.6 ± 0.0051,0.557 ± 0.027,0.709 ± 0.014,0.4659 ± 0.0027,0.432 ± 0.0072,0.548 ± 0.028
VYCLVLFFSQWC,0.452 ± 0.011,0.42 ± 0.03,0.484 ± 0.011,0.365 ± 0.025,0.543 ± 0.016,0.353 ± 0.013,0.351 ± 0.016,0.509 ± 0.013
GLSGFLLLIVLY,0.353 ± 0.026,0.194 ± 0.027,0.256 ± 0.019,0.239 ± 0.02,0.417 ± 0.049,0.252 ± 0.0089,0.228 ± 0.035,0.35509 ± 0.00019
WLCLFRFLGVAY,0.345 ± 0.018,0.18 ± 0.024,0.245 ± 0.04,0.218 ± 0.033,0.3 ± 0.0097,0.185 ± 0.005,0.216 ± 0.012,0.2749 ± 0.0024
FLQIIIFSRVLF,0.467 ± 0.024,0.455 ± 0.013,0.543 ± 0.059,0.377 ± 0.017,0.549 ± 0.0081,0.366 ± 0.026,0.364 ± 0.031,0.52 ± 0.011
LFLYDFIALRCS,0.415 ± 0.038,0.46 ± 0.016,0.55 ± 0.015,0.405 ± 0.025,0.566 ± 0.032,0.2104 ± 0.00034,0.24 ± 0.024,0.413 ± 0.012
PSDVLERVIRLL,0.265 ± 0.026,0.616 ± 0.027,0.714 ± 0.023,0.647 ± 0.019,0.7309 ± 0.00081,0.136 ± 0.0023,0.168 ± 0.01,0.277 ± 0.051
SGFLRFRGLVCY,0.359 ± 0.019,0.396 ± 0.016,0.445 ± 0.021,0.288 ± 0.043,0.503 ± 0.0067,0.233 ± 0.0028,0.278 ± 0.038,0.464 ± 0.008
YLGLSAVAILWM,0.4784 ± 0.0037,0.538 ± 0.041,0.533 ± 0.02,0.414 ± 0.029,0.563 ± 0.014,0.381 ± 0.011,0.412 ± 0.018,0.529 ± 0.011
LSLLCFVASVVA,0.275 ± 0.016,0.168 ± 0.0083,0.195 ± 0.005,0.238 ± 0.027,0.292 ± 0.015,0.1585 ± 0.00028,0.194 ± 0.021,0.224 ± 0.013
SGWGCRMVVCAG,0.245 ± 0.0031,0.154 ± 0.026,0.192 ± 0.028,0.186 ± 0.027,0.299 ± 0.011,0.152 ± 0.0088,0.197 ± 0.029,0.265 ± 0.0084
SSVGLFVLLCLV,0.302 ± 0.02,0.31 ± 0.028,0.333 ± 0.017,0.271 ± 0.039,0.503 ± 0.07,0.2 ± 0.0056,0.205 ± 0.015,0.323 ± 0.0056
SPPHSPSALPPP,0.587 ± 0.15,0.674 ± 0.025,0.726 ± 0.0086,0.656 ± 0.023,0.732 ± 0.019,0.685 ± 0.022,0.669 ± 0.0081,0.701 ± 0.0078
DLAWAIGRLTKG,0.568 ± 0.2,0.72 ± 0.02,0.769 ± 0.033,0.654 ± 0.029,0.761 ± 0.016,0.653 ± 0.011,0.652 ± 0.0094,0.743 ± 0.013
FLTLQSPIQYIV,0.171 ± 0.015,0.584 ± 0.032,0.732 ± 0.013,0.646 ± 0.053,0.7289 ± 0.0016,0.105 ± 0.0049,0.117 ± 0.017,0.124 ± 0.0086

# — the supplement of paper PMC10724198
